Square brackets hold non-standard residues; d marks the D form. Ends that are not written are not given here. Nle = CCCC[C@H](N)C(=O)O
Legend:
MC1-R = target: T1, MC1-R (Mus musculus, UniProt Q01727); assay: competitive inhibition binding assay, 125I-NDP-alpha-MSH, B-16 mouse melanoma cell membranes; conditions: 1 μM test peptide; 0.4 nM 125I-NDP-alpha-MSH; B-16 mouse melanoma cell membranes
T1 construct: membranes prepared from hMC3-R, hMC4-R, hMC5-R, and B-16 mouse melanoma cells (containing MC1-R); endogenous in cells; host or cells: B-16 mouse melanoma cells (membranes)
Experimental: (§1) The competitive inhibition binding assay was conducted using membranes prepared from hMC3-R, hMC4-R, hMC5-R, and B-16 mouse melanoma cells (containing MC1-R) using 0.4 nM ^125I-NDP-alpha-MSH (New England Nuclear, Boston, Mass., USA) in 50 mM HEPES buffer containing 1 mM MgCl2, 2 mM CaCl2, and 5 mM KCl, at pH 7.2. The assay tube also contained a chosen concentration of the test peptide of this invention complexed to a rhenium metal ion, typically at a 1 μM concentration, for determining its efficacy in inhibiting the binding of ^125I-NDP-alpha-MSH to its receptor. Non-specific binding was measured by complete inhibition of binding of ^125I-NDP-alpha-MSH in the assay with the presence of 1 μM alpha-MSH. Incubation was for 90 minutes at room temperature, after which the assay mixture was filtered and the membranes washed three times with ice cold buffer. The filter was dried and counted in a gamma counter for remaining radioactivity bound to the membranes. 100% specific binding was defined as the difference in radioactivity (cpm) bound to cell membranes in the absence and presence of 1 μM alpha-MSH. The cpm obtained in presence of test compounds were normalized with respect to 100% specific binding to determine the percent inhibition of ^125I-NDP-alpha MSH binding. Each assay was conducted in triplicate and the actual mean valves are described.

hMC4-R = target: T2, hMC4-R (Homo sapiens, UniProt P32245); assay: competitive inhibition binding assay, 125I-NDP-alpha-MSH, hMC4-R membranes; conditions: 1 μM test peptide; 0.4 nM 125I-NDP-alpha-MSH; hMC4-R membranes
T2 construct: expressed in transfected cells
Experimental: as §1

hMC3-R = target: T3, hMC3-R (Homo sapiens, UniProt P41968); assay: competitive inhibition binding assay, 125I-NDP-alpha-MSH, hMC3-R membranes; conditions: 1 μM test peptide; 0.4 nM 125I-NDP-alpha-MSH; hMC3-R membranes
T3 construct: expressed in transfected cells
Experimental: as §1

hMC5-R = target: T4, hMC5-R (Homo sapiens, UniProt P33032); assay: competitive inhibition binding assay, 125I-NDP-alpha-MSH, hMC5-R membranes; conditions: 1 μM test peptide; 0.4 nM 125I-NDP-alpha-MSH; hMC5-R membranes
T4 construct: expressed in transfected cells
Experimental: as §1

T1 sequence (Q01727 whole entry): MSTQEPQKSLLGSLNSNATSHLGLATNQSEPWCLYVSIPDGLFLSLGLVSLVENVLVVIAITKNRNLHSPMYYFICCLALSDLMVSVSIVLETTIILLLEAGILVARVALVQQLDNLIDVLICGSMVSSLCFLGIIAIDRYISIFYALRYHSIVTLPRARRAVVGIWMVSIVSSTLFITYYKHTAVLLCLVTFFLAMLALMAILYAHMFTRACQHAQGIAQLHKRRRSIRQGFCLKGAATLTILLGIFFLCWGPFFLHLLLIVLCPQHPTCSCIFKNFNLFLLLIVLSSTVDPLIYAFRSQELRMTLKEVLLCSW
T2 sequence (P32245 whole entry): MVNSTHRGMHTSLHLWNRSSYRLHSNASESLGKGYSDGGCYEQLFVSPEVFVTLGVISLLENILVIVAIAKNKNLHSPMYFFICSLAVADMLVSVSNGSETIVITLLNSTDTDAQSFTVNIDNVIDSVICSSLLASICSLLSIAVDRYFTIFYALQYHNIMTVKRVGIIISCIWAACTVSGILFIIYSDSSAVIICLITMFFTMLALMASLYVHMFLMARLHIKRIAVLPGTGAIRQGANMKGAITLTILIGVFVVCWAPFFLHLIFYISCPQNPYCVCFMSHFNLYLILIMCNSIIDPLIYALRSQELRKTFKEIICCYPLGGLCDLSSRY
T4 sequence (P33032 whole entry): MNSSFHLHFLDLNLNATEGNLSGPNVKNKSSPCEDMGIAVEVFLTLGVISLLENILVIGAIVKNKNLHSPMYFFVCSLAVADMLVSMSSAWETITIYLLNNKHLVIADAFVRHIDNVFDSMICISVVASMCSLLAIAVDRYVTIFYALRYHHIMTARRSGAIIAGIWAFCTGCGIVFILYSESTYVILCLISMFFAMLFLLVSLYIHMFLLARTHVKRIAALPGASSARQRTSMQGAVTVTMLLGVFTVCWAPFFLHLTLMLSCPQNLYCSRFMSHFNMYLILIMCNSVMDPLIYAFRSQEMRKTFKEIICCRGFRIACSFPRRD
T3 sequence (P41968 whole entry): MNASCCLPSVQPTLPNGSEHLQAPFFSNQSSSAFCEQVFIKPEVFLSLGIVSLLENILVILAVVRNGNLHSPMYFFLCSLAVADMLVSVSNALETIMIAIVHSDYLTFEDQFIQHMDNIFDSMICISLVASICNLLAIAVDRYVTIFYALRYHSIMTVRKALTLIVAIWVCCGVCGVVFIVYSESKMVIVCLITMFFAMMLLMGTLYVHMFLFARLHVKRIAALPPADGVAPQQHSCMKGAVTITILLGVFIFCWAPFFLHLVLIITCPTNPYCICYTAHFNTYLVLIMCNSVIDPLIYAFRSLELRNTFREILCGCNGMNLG

Row | Substance | % Inhibition at 1 μM at Melanocortin Receptor 1 (MC1-R) [%] | % Inhibition at 1 μM at Melanocortin Receptor 4 (hMC4-R) [%] | % Inhibition at 1 μM at Melanocortin Receptor 3 (hMC3-R) [%] | % Inhibition at 1 μM at Melanocortin Receptor 5 (hMC5-R) [%]
1 | Ac-Ser-Tyr-Ser-Nle-Cys-Glu-His-Phe-Arg-Trp-Gly-Lys-Pro-Val-NH2 (Ac-SYS[Nle]CEHFRWGKPV-NH2; not fully specified (bridges); printed as Ac-Ser-Tyr-Ser-Nle-Cys-Glu-His-Phe-Arg-Trp-Gly-Lys-Pro-Val-NH2; numbers in words are those of the source; also: oxorhenium(V) N3S1 chelate (Re(V)=O)) [1-10] | 72 | 7 | 0 | 5
2 | Ac-Ser-Tyr-Ser-Nle-D-Cys-Glu-His-Phe-Arg-Trp-Gly-Lys-Pro-Val-NH2 (Ac-SYS[Nle][dC]EHFRWGKPV-NH2; numbers in words are those of the source; also: oxorhenium(V) N3S1 chelate via Cys (Re(V)=O)) [2-10] | 65 | 18 | 0 | 0
3 | Ac-Ser-Tyr-Ser-Nle-Glu-Cys-His-Phe-Arg-Trp-Gly-Lys-Pro-Val-NH2 (Ac-SYS[Nle]ECHFRWGKPV-NH2; not fully specified (bridges); printed as Ac-Ser-Tyr-Ser-Nle-Glu-Cys-His-Phe-Arg-Trp-Gly-Lys-Pro-Val-NH2; numbers in words are those of the source; also: oxorhenium(V) N3S1 chelate (Re(V)=O)) [1-9] | 74 | 3 | 0 | 6
4 | Ac-Ser-Tyr-Ser-Nle-Glu-D-Cys-His-Phe-Arg-Trp-Gly-Lys-Pro-Val-NH2 (Ac-SYS[Nle]E[dC]HFRWGKPV-NH2; numbers in words are those of the source; also: oxorhenium(V) N3S1 chelate via Cys (Re(V)=O)) [2-9] | 92 | 35 | 13 | 2
5 | Ac-Ser-Tyr-Ser-Nle-Glu-His-Cys-Phe-Arg-Trp-Gly-Lys-Pro-Val-NH2 (Ac-SYS[Nle]EHCFRWGKPV-NH2; not fully specified (bridges); printed as Ac-Ser-Tyr-Ser-Nle-Glu-His-Cys-Phe-Arg-Trp-Gly-Lys-Pro-Val-NH2; numbers in words are those of the source; also: oxorhenium(V) N3S1 chelate (Re(V)=O)) [1-8] | 42 | 0 | 0 | 1
6 | Ac-Ser-Tyr-Ser-Nle-Glu-His-D-Cys-Phe-Arg-Trp-Gly-Lys-Pro-Val-NH2 (CFRWGKPV; Ac-Ser-Tyr-Ser-Nle-Glu-His N-term; D-residue; amide; printed: Cys-Phe-Arg-Trp-Gly-Lys-Pro-Val-) [2-8] | 69 | 25 | 0 | 29
7 | Ac-Ser-Tyr-Ser-Nle-Glu-His-Phe-Arg-Cys-Trp-Gly-Lys-Pro-Val-NH2 (Ac-SYS[Nle]EHFRCWGKPV-NH2; not fully specified (bridges); printed as Ac-Ser-Tyr-Ser-Nle-Glu-His-Phe-Arg-Cys-Trp-Gly-Lys-Pro-Val-NH2; numbers in words are those of the source; also: oxorhenium(V) N3S1 chelate (Re(V)=O)) [1-6] | 29 | 0 | 0 | 0
8 | Ac-Ser-Tyr-Ser-Nle-Glu-His-Phe-Arg-D-Cys-Trp-Gly-Lys-Pro-Val-NH2 (chain 1 Ac-SYS[Nle]EHFR; chain 2 [dC]WGKPV-NH2; not fully specified (bridges); numbers in words are those of the source; also: oxorhenium(V) N3S1 chelate (Re(V)=O)) [2-6] | 46 | 6 | 2 | 6
9 | Ac-Ser-Tyr-Ser-Nle-Glu-His-Phe-Arg-Trp-Cys-Gly-Lys-Pro-Val-NH2 (Ac-SYS[Nle]EHFRWCGKPV-NH2; not fully specified (bridges); printed as Ac-Ser-Tyr-Ser-Nle-Glu-His-Phe-Arg-Trp-Cys-Gly-Lys-Pro-Val-NH2; numbers in words are those of the source; also: oxorhenium(V) N3S1 chelate (Re(V)=O)) [1-5] | 57 | 0 | 0 | 0
10 | Ac-Ser-Tyr-Ser-Nle-Glu-His-Phe-Arg-Trp-D-Cys-Gly-Lys-Pro-Val-NH2 (chain 1 Ac-SYS[Nle]EHFRW; chain 2 [dC]GKPV-NH2; not fully specified (bridges); numbers in words are those of the source; also: oxorhenium(V) N3S1 chelate (Re(V)=O)) [2-5] | 43 | 4 | 0 | 0
11 | Ac-Ser-Tyr-Ser-Nle-Glu-His-Phe-Arg-Trp-Gly-Cys-Lys-Pro-Val-NH2 (Ac-SYS[Nle]EHFRWGCKPV-NH2; not fully specified (bridges); printed as Ac-Ser-Tyr-Ser-Nle-Glu-His-Phe-Arg-Trp-Gly-Cys-Lys-Pro-Val-NH2; numbers in words are those of the source; also: oxorhenium(V) N3S1 chelate (Re(V)=O)) [1-4] | 72 | 0 | 0 | 6
12 | Ac-Ser-Tyr-Ser-Nle-Glu-His-Phe-Arg-Trp-Gly-D-Cys-Lys-Pro-Val-NH2 (chain 1 EHFRWG; chain 2 CKPV; not fully specified; Ac-Ser-Tyr-Ser-Nle N-term; D-residue; amide; printed: Glu-His-Phe-Arg-Trp-Gly-; printed: Cys-Lys-Pro-Val-) [2-4] | 91 | 40 | 27 | 21
